Assays:
[1] = molecular target: T1, IGF-I receptor on MCF-7 cells (Homo sapiens, UniProt P08069); test: FACS binding to human breast cancer MCF-7 cells
T1 construct: human breast cancer MCF-7 cells, which expressed IGF-I receptor; endogenous in cells; host or cells: MCF-7 human breast cancer cells
Description: The cells were pelleted by centrifugation and washed with cold FACS buffer by gentle flicking, followed by incubation with goat-anti-mouse-IgG-antibody-FITC conjugate (100 μL; 10 μg/mL in FACS buffer) on ice for 1 h. The cells were pelleted, washed, and resuspended in 120 μL of 1% formaldehyde solution in PBS. The plate was analyzed using a FACSCalibur reader (BD Biosciences).

IGF-I receptor = molecular target: T2, IGF-I receptor (Homo sapiens, UniProt P08069); test: IGF-I-stimulated autophosphorylation of IGF-I receptor in MCF-7 cells (ELISA); format: cell-based; settings: 20 μg/mL antibody 3 h; 50 ng/mL IGF-I 20 min
T2 construct: human breast cancer MCF-7 cells, which expressed IGF-I receptor; endogenous in cells; host or cells: MCF-7 human breast cancer cells
Description: In FIG. 4, the MCF-7 cells were grown in a 12-well plate in regular medium for 3 days, and were then treated with 20 μg/mL EM164 antibody (or anti-B4 control antibody) in serum-free medium for 3 h, followed by stimulation with 50 ng/mL IGF-I for 20 min at 37° C. The cells were then lysed in ice-cold lysis buffer containing protease and phosphatase inhibitors (50 mM HEPES buffer, pH 7.4, 1% NP-40, 1 mM sodium orthovanadate, 100 mM sodium fluoride, 10 mM sodium pyrophosphate, 2.5 mM EDTA, 10 μM leupeptin, 5 μM pepstatin, 1 mM PMSF, 5 mM benzamidine, and 5 μg/mL aprotinin). An ELISA plate was pre-coated with anti-IGF-I receptor beta chain C-terminus monoclonal antibody TC123 and was incubated with the lysate samples for 5 h at ambient temperature to capture IGF-I receptor. The wells containing the captured IGF-I receptor were then washed and incubated with biotinylated anti-phosphotyrosine antibody (PY20; 0.25 μg/mL; BD Transduction Laboratories) for 30 min, followed by washes and incubation with streptavidin-horseradish peroxidase conjugate (0.8 μg/mL) for 30 min. The wells were washed and detected with ABTS/H2O2 substrate.

SK-LU-1 cells = test: Growth and survival of SK-LU-1 cells (MTT assay); format: cell-based, human
Description: (§1) Several human tumor cell lines were tested in serum-free conditions for their growth and survival response to IGF-I. These cell lines were treated with EM164 antibody in the presence of IGF-I, IGF-II, or serum, and their growth and survival responses were measured using an MTT assay after 2-4 days. Approximately 1500 cells were plated in a 96-well plate in regular medium with serum, which was replaced with serum-free medium the following day (either serum-free RPMI medium supplemented with transferrin and BSA, or phenol-red free medium as specified by Dufourny, B. et al., 1997, J. Biol. Chem., 272, 31163-31171). After one day of growth in serum-free medium, the cells were incubated with about 75 μL of 10 μg/mL antibody for 30 min.-3 h, followed by the addition of 25 μL of IGF-I (or IGF-II or serum) solution to obtain a final concentration of 10 ng/mL IGF-I, or 20 ng/mL IGF-II, or 0.04-10% serum. In some experiments, the cells were stimulated first with IGF-I for 15 min before the addition of EM164 antibody, or both IGF-I and EM164 antibody were added together. The cells were then allowed to grow for another 2-3 days. A solution of MTT (3-(4,5)-dimethylthiazol-2-yl)-2,5-diphenyltetrazolium bromide; 25 μL of a 5 mg/mL solution in PBS) was then added and the cells were returned to the incubator for 2-3 h. The medium was then removed and replaced by 100 μL DMSO, mixed, and the absorbance of the plate was measured at 545 nm.

[2] = tested on: SaOS-2 (osteosarcoma) cells; test: Growth and survival of SaOS-2 cells (MTT assay); format: cell-based, human
Description: as §1

MCF-7 cells = test: Growth inhibition of MCF-7 cells by counting cells; format: cell-based, human; settings: 10 μg/mL EM164
Description: The growth inhibition of MCF-7 cells by EM164 antibody was measured by counting cells. Thus, in a 12-well plate, about 7500 cells were plated in RPMI medium with 10% FBS, in the presence or absence of 10 μg/mL EM164 antibody. After 5 days of growth, the cell count for the untreated control sample was 20.5×10^4 cells, in contrast to a cell count of only 1.7×10^4 cells for the EM164 antibody-treated sample.

[3] = 5-10 μg/mL EM164, 10 ng/mL IGF-I
[4] = 5-10 μg/mL EM164, MTT or colony formation assay

B1: EM164: murine anti-IGF-I receptor monoclonal antibody, IgG1 with kappa light chain, hybridoma ATCC PTA-4457; heavy SEQ ID NO:7, light SEQ ID NO:8 (antibody)
heavy: QVQLQQSGAELVKPGASVKLSCKASGYTFTSYWMHWVKQRPGQGLEWIGEINPSNGRTNYNEKFKRKATLTVDKSSSTAYMQLSSLTSEDSAVYYFARGRPDYYGSSKWYFDVWGAGTTVTVSS
light: DVLMTQTPLSLPVSLGDQASISCRSSQSIVHSNVNTYLEWYLQKPGQSPKLLIYKVSNRFSGVPDRFSGSGSGTDFTLRISRVEAEDLGIYYCFQGSHVPPTFGGGTKLEIKR
modifications: antibody heavy chain; antibody light chain
- fluorescence shift (FACS) [1]: strong fluorescence shift
- inhibition of the IGF-I stimulated autophosphorylation of IGF-I receptor (IGF-I receptor): complete inhibition
- Inhibition by EM164 antibody of IGF-I-stimulated growth in serum-free medium (SK-LU-1 cells; [3]): 100%
- % Inhibition by EM164 antibody of Growth/survival of cells in 1.25-10% serum (SK-LU-1 cells; [4]): No
- Inhibition by EM164 antibody of IGF-I-stimulated growth in serum-free medium [2, 3]: 100%
- % Inhibition by EM164 antibody of Growth/survival of cells in 1.25-10% serum [2, 4]: Yes
- cell count after 5 days of growth (MCF-7 cells; RPMI with 10% FBS, about 7500 cells plated, untreated control 20.5×10^4 cells): 1.7×10^4 cells
- inhibition of growth of MCF-7 cells (MCF-7 cells; in 5 days, 10% FBS): about 12 fold
